Source: paper PMC8543862, “Characterization of a highly xylose tolerant β-xylosidase isolated from high temperature horse manure compost” (BMC Biotechnology, 2021)

Test system: O=[N+]([O-])c1ccc(O[C@@H]2OC[C@@H](O)[C@H](O)[C@H]2O)cc1
Experiment: purified protein
Assay type: biochemical, uncultured bacterium
Conditions: 50 mM sodium phosphate pH 6, 37 °C, 20 min, 1-20 mM substrate, kcat unit not given

**Q.** For XylP81 (uncultured bacterium), which Km is on record?
**A.** The Km was 5.3 mM.
